Tested on: rats with focal ischemia (MCAO)
Test: Mortality after focal ischemia (MCAO) stroke
Assay type: in vivo
Settings: rTPA i.v. 6 hours after the stroke, with or without bryostatin-1 2 hours later
Procedure: A transient animal model of focal ischemia was used for these experiments. The middle cerebral artery (MCA) was surgically dissected and occluded in anesthetized rats by ligature, followed by reperfusion after a defined period (about 2 hours). Animal models transient ischemia via occlusion of the MCA (MCAO) are described in, e.g., Sicard and Fisher, Exp. & Transl. Stroke Med. (2009), vol. 1, pp. 1-7.
In contrast, if rTPA was given 6 hours after the stroke, in the absence of subsequent treatment with bryostatin, 44% mortality was observed (N=6 animals).

B1: rTPA: recombinant tissue plasminogen activator, thrombolytic serine protease approved for ischemic stroke (protein, UniProt P00750 36-562, looked up)
Tissue-type plasminogen …: SYQVICRDEKTQMIYQQHQSWLRPVLRSNRVEYCWCNSGRAQCHSVPVKSCSEPRCFNGGTCQQALYFSDFVCQCPEGFAGKCCEIDTRATCYEDQGISYRGTWSTAESGAECTNWNSSALAQKPYSGRRPDAIRLGLGNHNYCRNPDRDSKPWCYVFKAGKYSSEFCSTPACSEGNSDCYFGNGSAYRGTHSLTESGASCLPWNSMILIGKVYTAQNPSAQALGLGKHNYCRNPDGDAKPWCHVLKNRRLTWEYCDVPSCSTCGLRQYSQPQFRIKGGLFADIASHPWQAAIFAKHRRSPGERFLCGGILISSCWILSAAHCFQERFPPHHLTVILGRTYRVVPGEEEQKFEVEKYIVHKEFDDDTYDNDIALLQLKSDSSRCAQESSVVRTVCLPPADLQLPDWTECELSGYGKHEALSPFYSERLKEAHVRLYPSSRCTSQHLLNRTVTDNMLCAGDTRSGGPQANLHDACQGDSGGPLVCLNDGRMTLVGIISWGLGCGQKDVPGVYTKVTNYLDWIRDNMRP
Question: Which “mortality 24 hours later” value does the source give for B1 here?
Answer: 44%
